Source: PMC8041169

Target: recombinant truncated LvAPN1-His (N-terminal region of Litopenaeus vannamei aminopeptidase N1 with the Cry toxin binding region and the active site of the peptidase-M1 domain) (Litopenaeus vannamei)
Experiment: ELISA; 20 ug purified truncated rLvAPN1 coated overnight in 0.1 M carbonate/bicarbonate buffer pH 9.6 at 4 C; blocked with 0.5% BSA in TBS pH 8.0; rPirA^vp, rPirB^vp or rGST at 0-10 uM in TBS incubated at 4 C overnight; detected with rabbit anti-PirA^vp or anti-PirB^vp polyclonal antibody and HRP-conjugated secondary antibody, A450; one-site binding model; apparent Kd

For “recombinant PirA^vp-His toxin subunit of Vibrio parahaemolyticus (VP_AHPND) (natural protein)”, the Kd was 3200 nM.

Substance “recombinant PirB^vp-GST toxin subunit of Vibrio parahaemolyticus (VP_AHPND) (natural protein)” has a Kd of 500 nM.
